The chains are these.
T1: mouse SIRPα D1-Fc (mouse, UniProt P97797 32-150, limits assumed)
T1 construct: domain: D1
T1 sequence (looked up): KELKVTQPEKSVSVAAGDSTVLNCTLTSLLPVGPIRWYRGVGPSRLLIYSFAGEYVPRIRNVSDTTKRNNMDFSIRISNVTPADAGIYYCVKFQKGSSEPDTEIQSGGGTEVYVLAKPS

T2: mouse SIRPβ1 on CHO cells (mouse)
T2 construct: Whole entry
T2 chain: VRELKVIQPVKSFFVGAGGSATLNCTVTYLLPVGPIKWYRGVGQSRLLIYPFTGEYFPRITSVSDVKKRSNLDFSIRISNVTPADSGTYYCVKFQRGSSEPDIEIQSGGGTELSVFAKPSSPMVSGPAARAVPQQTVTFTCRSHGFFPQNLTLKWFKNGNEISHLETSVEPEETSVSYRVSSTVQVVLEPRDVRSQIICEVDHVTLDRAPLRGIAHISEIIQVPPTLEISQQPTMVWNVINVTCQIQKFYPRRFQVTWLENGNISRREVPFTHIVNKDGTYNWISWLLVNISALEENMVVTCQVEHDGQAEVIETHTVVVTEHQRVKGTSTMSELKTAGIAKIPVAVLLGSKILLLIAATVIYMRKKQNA

T3: mouse SIRPα on cells (mouse, UniProt P97797 32-513)
T3 construct: whole, on cells
T3 sequence (looked up): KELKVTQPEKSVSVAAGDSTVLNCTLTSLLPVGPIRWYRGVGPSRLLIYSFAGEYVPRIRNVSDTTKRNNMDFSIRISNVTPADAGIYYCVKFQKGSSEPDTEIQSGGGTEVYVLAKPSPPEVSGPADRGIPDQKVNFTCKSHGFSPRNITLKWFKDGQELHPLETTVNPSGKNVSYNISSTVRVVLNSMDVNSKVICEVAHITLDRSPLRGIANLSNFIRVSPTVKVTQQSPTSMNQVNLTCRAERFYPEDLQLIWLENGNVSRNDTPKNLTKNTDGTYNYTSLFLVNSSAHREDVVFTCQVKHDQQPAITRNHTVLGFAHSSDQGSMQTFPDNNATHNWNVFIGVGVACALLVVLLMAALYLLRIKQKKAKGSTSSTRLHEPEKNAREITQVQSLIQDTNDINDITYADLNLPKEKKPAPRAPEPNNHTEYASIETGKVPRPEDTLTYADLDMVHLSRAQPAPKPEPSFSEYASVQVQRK

B1: SB-50 (antibody, V domains shown)
VH: QVQLVQSGAEVKKPGSSVKVSCKASGGTFSSYAISWVRQAPGQGLEWMGGIIPIFGTANYAQKFQGRVTITADESTSTAYMELSSLRSEDTAVYYCAREGGGHASYHYYGMDVWGQGTTVTVSS
VL: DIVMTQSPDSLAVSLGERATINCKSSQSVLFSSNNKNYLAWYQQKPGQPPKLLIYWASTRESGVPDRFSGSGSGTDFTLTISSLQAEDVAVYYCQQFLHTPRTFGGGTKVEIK
notes: IgG
B2: SB-5 (antibody, V domains shown)
VH: not shown
VL: EIVLTQSPATLSLSPGERATITCRASQSVSSYLAWYQQKPGQAPRLLIYDASNRATGIPARFSGSGSGTDFTLTISSLEPEDFAVYYCQQRLFHPPTFGGGTKVEIK
notes: IgG
B3: SB-14 (antibody, V domains shown)
VH: QVQLVQSGAEVKKPGSSVKVSCKASGGTFSSYAISWVRQAPGQGLEWMGGIIPIFGTASYAQKFQGRVTITADESTSTAYMELSSLRSEDTAVYYCARDRGGVGFDYWGQGTLVTVSS
VL: B2 VL with L4M, I21L, T22S, A51S, R91F, L92S, F93Y, H94Y, P96I
notes: IgG
B4: SB-13 (antibody, V domains shown)
VH: QVQLQESGPGLVKPSETLSLTCTVSGGSISSYYWSWIRQPPGKGLEWIGSIYYSGSTNYNPSLKSRVTISVDTSKNQFSLKLSSVTAADTAVYYCARGDTSGGAYFDLWGRGTLVTVSS
VL: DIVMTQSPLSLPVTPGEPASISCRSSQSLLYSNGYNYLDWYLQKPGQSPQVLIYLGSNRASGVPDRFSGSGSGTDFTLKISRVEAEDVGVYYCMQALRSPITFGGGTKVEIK
notes: IgG
B5: SB-34 (antibody, V domains shown)
VH: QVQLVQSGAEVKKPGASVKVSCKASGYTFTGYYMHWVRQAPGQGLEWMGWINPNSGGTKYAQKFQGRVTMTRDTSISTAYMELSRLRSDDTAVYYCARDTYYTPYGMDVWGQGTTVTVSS
VL: EIVMTQSPATLSVSPGERATLSCRASQSVSSNLAWYQQKPGQAPRLLIYGASTRATGIPARFSGSGSGTEFTLTISSLQSEDFAVYYCQQDNTFPYTFGGGTKVEIK
notes: IgG
B6: SB-10 (antibody, V domains shown)
VH: QVQLVQSGAEVKKPGSSVKVSCKASGGTFSSYAISWVRQAPGQGLEWMGGIIPIFGTANYAQKFQGRVTITADESTSTAYMELSSLRSEDTAVYYCARGVPRGDLGMDVWGQGTTVTVSS
VL: not shown
notes: IgG
B7: SB-32 (antibody, V domains shown)
VH: QVQLQESGPGLVKPSETLSLTCTVSGGSISSYYWSWIRQPPGKGLEWIGYIYSSGSTNYNPSLKSRVTISVDTSKNQFSLKLSSVTAADTAVYYCARGDSSSGGLDLWGRGTLVTVSS
VL: not shown
notes: IgG
B8: SB-39 (antibody, V domains shown)
VH: QVQLQESGPGLVKPSETLSLTCAVSGYSISSGYYWAWIRQPPGKGLEWIGSIYHSGSTYYNPSLKSRVTISVDTSKNQFSLKLSSVTAADTAVYYCARGGSNYGDYGRFDYWGQGTLVTVSS
VL: DIQMTQSPSSLSASVGDRVTITCRASQSISSYLNWYQQKPGKAPKLLIYGASSLQSGVPSRFSGSGSGTDFTLTISSLQPEDFATYYCQQSYDFPLTFGGGTKVEIK
notes: IgG
B9: SB-30 (antibody, V domains shown)
VH: QVQLQESGPGLVKPSQTLSLTCTVSGGSISSGGYYWSWIRQHPGKGLEWIGYIYYSGSTVYNPSLKSRVTISVDTSKNQFSLKLSSVTAADTAVYYCAREGPGYPSYFDPWGQGTLVTVSS
VL: EIVLTQSPGTLSLSPGERATLSCRASQSVSSSFLAWYQQKPGQAPRLLIYGASSRATGIPDRFSGSGSGTDFTLTISRLEPEDFAVYYCQQFLSSPWTFGGGTKVENQ
notes: IgG

Residue numbers refer to the chain shown, from its start.
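Wherever FOB is given: antibodies tested at 1 µg/ml for 30 min on ice against receptor-expressing cells, detected with a PE-labelled secondary antibody, read as mean fluorescence intensity relative to background.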

T7 sequence (O00241 30-148 limits assumed): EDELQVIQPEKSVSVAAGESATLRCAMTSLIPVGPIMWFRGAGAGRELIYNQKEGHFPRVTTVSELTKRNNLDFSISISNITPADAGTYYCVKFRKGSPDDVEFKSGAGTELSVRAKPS

The target in one test is T4, human SIRPα domain 1 (D1) Fc fusion (human, UniProt P78324 32-149).
T4 construct: also called human SIRPα D1-Fc; Human SIRPα Fc; not shown: C-terminal human IgG1 Fc
Nature of the test: Octet. Background: BLI is a label-free optical method that tracks binding on a fibre tip over time.
With B1, the binding result was “no binding (tested: 100 nM)”.

Regarding B2, the binding result is on record as “no binding (tested: 100 nM)”.

As for B3, the binding result was “no binding (tested: 100 nM)”.

For the molecule B4, the binding result is “no binding (tested: 100 nM)”.

Turning to B5, the binding result was “no binding (tested: 100 nM)”.

As to B6, the binding result was “no binding (tested: 100 nM)”.

A further test addresses T1, mouse SIRPα D1-Fc. Put plainly: Octet.
Description: Briefly, Octet affinity measurements were performed by loading IgGs on-line onto AHQ sensors. Sensors were equilibrated off-line in assay buffer for 30 min and then monitored on-line for 60 seconds for baseline establishment. For avid binding measurement, sensors with loaded IgGs were exposed to 100 nM antigen (human SIRPα domain 1 (D1) Fc fusion or SIRPβ1 domain 1 (D1) Fc fusion) for 3 min, and then transferred to assay buffer for 3 min for off-rate measurement. Additional avid binding was determined by loading biotinylated SIRPβ1 monomer on SA sensors and exposing to 100 nM IgG in solution. Monovalent binding measurements were obtained by loading human SIRPα- or SIRPβ1-Fc fusion antigens onto AHQ sensor, followed by exposure to 100 nM anti-SIRPβ1 antibody Fab. Additional monovalent measurements were made by loading biotinylated human SIRPα or SIRPβ1 monomer to SA sensor followed by exposure to 100 nM Fab in solution. Kinetics data were fit using a 1:1 binding model in the data analysis software provided by ForteBio (ForteBio Data Analysis Software 7.0).
Consider B7, for which the binding result is reported as “no binding (tested: 100 nM)”.

Regarding B1, the binding result is given as “no binding (tested: 100 nM)”.

Turning to B8, the binding result was “no binding (tested: 100 nM)”.

Take B2: the binding result is “no binding (tested: 100 nM)”.

As to B3, the binding result was “no binding (tested: 100 nM)”.

In the case of B4, the binding result was “no binding (tested: 100 nM)”.

As for B9, the binding result was “no binding (tested: 100 nM)”.

For B5, the binding result is listed as “no binding (tested: 100 nM)”.

Regarding B6, the binding result is “no binding (tested: 100 nM)”.

The target in another test is T5, human SIRPα on cells (human, UniProt P78324 31-504).
T5 construct: Whole entry
Put plainly: flow cytometry. On the technique in general: A flow cytometer gives signals particle by particle.
As to B1, the binding result was “no binding (tested: 1 ug/ml)”.

B2: the binding result is “no binding (tested: 1 ug/ml)”.

B3: the binding result was “no binding (tested: 1 ug/ml)”.

Regarding B4, the binding result is listed as “no binding (tested: 1 ug/ml)”.

In the case of B5, the binding result was “no binding (tested: 1 ug/ml)”.

For B6, the binding result is recorded as “no binding (tested: 1 ug/ml)”.

The target of a further test is T2, mouse SIRPβ1 on CHO cells. Put plainly: flow cytometry.
B7: the binding result is “no binding (tested: 1 ug/ml)”.

With B1, the binding result is on record as “no binding (tested: 1 ug/ml)”.

In the case of B8, the binding result is listed as “no binding (tested: 1 ug/ml)”.

Turning to B2, the binding result is given as “no binding (tested: 1 ug/ml)”.

Take B3: the binding result is “no binding (tested: 1 ug/ml)”.

With B4, the binding result is given as “no binding (tested: 1 ug/ml)”.

As for B9, the binding result is given as “no binding (tested: 1 ug/ml)”.

For the molecule B5, the binding result is on record as “no binding (tested: 1 ug/ml)”.

As for B6, the binding result is “no binding (tested: 1 ug/ml)”.

For a further test, the target named is T3, mouse SIRPα on cells. Put plainly: flow cytometry.
In the case of B7, the binding result is given as “no binding (tested: 1 ug/ml)”.

For B1, the binding result was “no binding (tested: 1 ug/ml)”.

Take B8: the binding result was “no binding (tested: 1 ug/ml)”.

Turning to B2, the binding result was “no binding (tested: 1 ug/ml)”.

With B3, the binding result was “no binding (tested: 1 ug/ml)”.

As to B4, the binding result is given as “no binding (tested: 1 ug/ml)”.

Regarding B9, the binding result is “no binding (tested: 1 ug/ml)”.

With B5, the binding result is given as “no binding (tested: 1 ug/ml)”.

With B6, the binding result is reported as “no binding (tested: 1 ug/ml)”.

In another test the target is T6, human SIRPβ1 isoform 1 on cells (human, UniProt O00241 30-398).
T6 construct: On CHO cells (low level), on BWZ/BW5147.G.1.4 cells (reporter cells co-express human DAP12) or on primary human myeloid cells; also called huSIRPβ1; BWZ-huSIRPβ1
T6 sequence (O00241 30-398): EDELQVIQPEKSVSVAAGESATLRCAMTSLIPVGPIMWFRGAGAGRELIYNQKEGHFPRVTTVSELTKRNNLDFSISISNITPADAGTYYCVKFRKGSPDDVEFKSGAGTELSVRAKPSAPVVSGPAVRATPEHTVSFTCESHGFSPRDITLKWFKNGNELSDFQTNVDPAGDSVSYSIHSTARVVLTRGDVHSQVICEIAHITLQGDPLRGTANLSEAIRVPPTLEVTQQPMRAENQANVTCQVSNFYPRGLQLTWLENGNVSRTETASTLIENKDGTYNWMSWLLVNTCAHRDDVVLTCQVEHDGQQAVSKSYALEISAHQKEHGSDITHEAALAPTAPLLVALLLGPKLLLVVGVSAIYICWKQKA
Put plainly: flow cytometry.
Description: (§1) Initial characterization of anti-SIRPβ1 antibodies involved determining their ability to bind cell lines expressing human or mouse SIRPβ1. Cells were harvested, plated at 10⁶/ml in a 96-well plate, washed, and incubated in 100 μl FACS buffer containing 1 μg/ml anti-SIRPβ1 antibody for 0.5 hour on ice. Cells were then washed twice and incubated in 100 μl FACS buffer containing 0.5 μg/ml PE-conjugated secondary antibody for 30 minutes on ice. Cells were washed twice in cold FACS buffer and acquired on a BD FACS Canto. Data analysis and calculation of mean fluorescence intensity (MFI) values or 00 positive cells was performed with FlowJo (TreeStar) software version 10.0.7.
(§2) As a negative control, the anti-SIRPβ1 antibodies were also screened for surface binding to CHO cells overexpressing recombinant mouse SIRPβ31. […] Given the high sequence similarity between receptors of the SIRPβ family, anti-SIRPβ1 antibodies were also screened for cross-reactivity to human and mouse SIRPα.
On to B7, for which the FOB was 1.5 fold over background.

Regarding B1, the FOB was 2.8 fold over background.

On to B8, for which the FOB worked out at 5 fold over background.

On to B2, for which the FOB came to 1.6 fold over background.

B3: the FOB amounted to 4.5 fold over background.

As to B4, the FOB is 1.9 fold over background.

In turn, B9 registered an FOB of 1.7 fold over background.

Take B5: the FOB amounted to 1.8 fold over background.

Molecule B6 came in with an FOB of 3.8 fold over background.

A further test concerns the target T5, human SIRPα on cells. Nature of the test: flow cytometry. This is another data set of the same source.
Description: as §1, §2
Take B7: the FOB turned out to be 2.2 fold over background.

B1 returned an FOB of 2.5 fold over background.

As to B8, the FOB turned out to be 2 fold over background.

As for B2, the FOB turned out to be 2 fold over background.

B3 registered an FOB of 2.5 fold over background.

As for B4, the FOB is 1.9 fold over background.

The molecule B9 showed an FOB of 2.1 fold over background.

B5 gave an FOB of 2 fold over background.

In turn, B6 gave an FOB of 2.4 fold over background.

Another test concerns the target T2, mouse SIRPβ1 on CHO cells. Nature of the test: flow cytometry. This is another data set of the same source.
Description: as §1, §2
B7 returned an FOB of 1.2 fold over background.

On to B1, for which the FOB turned out to be 1.2 fold over background.

On to B8, for which the FOB was determined as 1.4 fold over background.

B2: the FOB was 1.3 fold over background.

Take B3: the FOB was 1.3 fold over background.

B4: the FOB stood at 1.2 fold over background.

Take B9: the FOB was 1.4 fold over background.

For B5, the FOB came to 1.2 fold over background.

B6: the FOB was found to be 1.4 fold over background.

The target in a further test is T3, mouse SIRPα on cells. Nature of the test: flow cytometry. This is another data set of the same source.
Description: as §1, §2
In the case of B7, the FOB came out at 1.2 fold over background.

B1 yielded an FOB of 1.7 fold over background.

As to B8, the FOB stood at 1.1 fold over background.

As for B2, the FOB was found to be 1.5 fold over background.

For the molecule B3, the FOB was 1.2 fold over background.

In turn, B4 came in with an FOB of 0.9 fold over background.

Consider B9, for which the FOB was found to be 1.5 fold over background.

As for B5, the FOB was 1.3 fold over background.

Take B6: the FOB turned out to be 1 fold over background.

A further test concerns the target T7, human SIRPβ1 domain 1 (D1) Fc fusion (human, UniProt O00241 30-148).
T7 construct: Made in HEK293/T cells with a heterologous signal peptide; also called Human SIRPβ1 D1-Fc; Human SIRPβ1-Fc; not shown: C-terminal human IgG1 Fc
Nature of the test: Octet, IgG avid.
B7 came in with a Kd of 7.13 nM.

Turning to B8, the affinity, expressed as Kd, was 21.4 nM.

Consider B9, for which the Kd was determined as 7.87 nM.

Usually Kd stands for the free concentration of one partner at which half of the binding sites on the other are occupied at equilibrium, for simple one-to-one binding. Read a high Kd as weaker binding.

The values are drawn from patent publication US20250026827A1 (Alector, published 2025).
